Square brackets hold non-standard residues; d marks the D form.
T1: human TREK-1 potassium channel expressed in the h-TREK-1/HEK cell line (human, UniProt O95069 1-426)
T1 sequence (looked up): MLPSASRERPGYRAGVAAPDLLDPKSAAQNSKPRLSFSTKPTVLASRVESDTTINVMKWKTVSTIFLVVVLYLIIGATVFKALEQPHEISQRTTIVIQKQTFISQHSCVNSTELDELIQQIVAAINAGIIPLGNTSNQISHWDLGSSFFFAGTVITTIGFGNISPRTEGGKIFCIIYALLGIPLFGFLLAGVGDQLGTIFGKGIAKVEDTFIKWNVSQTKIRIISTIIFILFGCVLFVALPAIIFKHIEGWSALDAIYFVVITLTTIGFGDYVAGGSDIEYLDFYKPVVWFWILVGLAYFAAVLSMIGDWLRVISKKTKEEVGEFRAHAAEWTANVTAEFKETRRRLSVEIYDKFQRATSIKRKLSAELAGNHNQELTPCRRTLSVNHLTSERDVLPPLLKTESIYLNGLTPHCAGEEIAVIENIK

B1: Analog 8 (SEQ ID NO:9), Ac-rlGwsvGipGswrplpaappppadlrdq-NH2 (peptide)
peptide: Ac-[dR][dL]G[dW][dS][dV]G[dI][dP]G[dS][dW][dR][dP][dL][dP][dA][dA][dP][dP][dP][dP][dA][dD][dL][dR][dD][dQ]-NH2
SMILES: CC[C@@H](C)[C@@H](NC(=O)CNC(=O)[C@H](NC(=O)[C@@H](CO)NC(=O)[C@@H](Cc1c[nH]c2ccccc12)NC(=O)CNC(=O)[C@@H](CC(C)C)NC(=O)[C@@H](CCCNC(=N)N)NC(C)=O)C(C)C)C(=O)N1CCC[C@@H]1C(=O)NCC(=O)N[C@H](CO)C(=O)N[C@H](Cc1c[nH]c2ccccc12)C(=O)N[C@H](CCCNC(=N)N)C(=O)N1CCC[C@@H]1C(=O)N[C@H](CC(C)C)C(=O)N1CCC[C@@H]1C(=O)N[C@H](C)C(=O)N[C@H](C)C(=O)N1CCC[C@@H]1C(=O)N1CCC[C@@H]1C(=O)N1CCC[C@@H]1C(=O)N1CCC[C@@H]1C(=O)N[C@H](C)C(=O)N[C@H](CC(=O)O)C(=O)N[C@H](CC(C)C)C(=O)N[C@H](CCCNC(=N)N)C(=O)N[C@H](CC(=O)O)C(=O)N[C@H](CCC(N)=O)C(N)=O
B2: Analog 16 (SEQ ID NO:21), c(rlGwsvGipGswrplparlGwsvGipGswrplpa) (peptide)
peptide: cyclo([dR][dL]G[dW][dS][dV]G[dI][dP]G[dS][dW][dR][dP][dL][dP][dA][dR][dL]G[dW][dS][dV]G[dI][dP]G[dS][dW][dR][dP][dL][dP][dA])
SMILES: CC[C@@H](C)[C@H]1NC(=O)CNC(=O)[C@@H](C(C)C)NC(=O)[C@@H](CO)NC(=O)[C@@H](Cc2c[nH]c3ccccc23)NC(=O)CNC(=O)[C@@H](CC(C)C)NC(=O)[C@@H](CCCNC(=N)N)NC(=O)[C@@H](C)NC(=O)[C@H]2CCCN2C(=O)[C@@H](CC(C)C)NC(=O)[C@H]2CCCN2C(=O)[C@@H](CCCNC(=N)N)NC(=O)[C@@H](Cc2c[nH]c3ccccc23)NC(=O)[C@@H](CO)NC(=O)CNC(=O)[C@H]2CCCN2C(=O)[C@@H]([C@H](C)CC)NC(=O)CNC(=O)[C@@H](C(C)C)NC(=O)[C@@H](CO)NC(=O)[C@@H](Cc2c[nH]c3ccccc23)NC(=O)CNC(=O)[C@@H](CC(C)C)NC(=O)[C@@H](CCCNC(=N)N)NC(=O)[C@@H](C)NC(=O)[C@H]2CCCN2C(=O)[C@@H](CC(C)C)NC(=O)[C@H]2CCCN2C(=O)[C@@H](CCCNC(=N)N)NC(=O)[C@@H](Cc2c[nH]c3ccccc23)NC(=O)[C@@H](CO)NC(=O)CNC(=O)[C@H]2CCCN2C1=O
B3: Analog 3 (SEQ ID NO:4), Ac-rlGwsvGipGswrplpa-NH2 (peptide)
peptide: Ac-[dR][dL]G[dW][dS][dV]G[dI][dP]G[dS][dW][dR][dP][dL][dP][dA]-NH2
SMILES: CC[C@@H](C)[C@@H](NC(=O)CNC(=O)[C@H](NC(=O)[C@@H](CO)NC(=O)[C@@H](Cc1c[nH]c2ccccc12)NC(=O)CNC(=O)[C@@H](CC(C)C)NC(=O)[C@@H](CCCNC(=N)N)NC(C)=O)C(C)C)C(=O)N1CCC[C@@H]1C(=O)NCC(=O)N[C@H](CO)C(=O)N[C@H](Cc1c[nH]c2ccccc12)C(=O)N[C@H](CCCNC(=N)N)C(=O)N1CCC[C@@H]1C(=O)N[C@H](CC(C)C)C(=O)N1CCC[C@@H]1C(=O)N[C@H](C)C(N)=O
B4: Analog 15 (SEQ ID NO:20), c(rlGwsvGipGswrplpa) (peptide)
peptide: cyclo([dR][dL]G[dW][dS][dV]G[dI][dP]G[dS][dW][dR][dP][dL][dP][dA])
SMILES: CC[C@@H](C)[C@H]1NC(=O)CNC(=O)[C@@H](C(C)C)NC(=O)[C@@H](CO)NC(=O)[C@@H](Cc2c[nH]c3ccccc23)NC(=O)CNC(=O)[C@@H](CC(C)C)NC(=O)[C@@H](CCCNC(=N)N)NC(=O)[C@@H](C)NC(=O)[C@H]2CCCN2C(=O)[C@@H](CC(C)C)NC(=O)[C@H]2CCCN2C(=O)[C@@H](CCCNC(=N)N)NC(=O)[C@@H](Cc2c[nH]c3ccccc23)NC(=O)[C@@H](CO)NC(=O)CNC(=O)[C@H]2CCCN2C1=O
B5: Analog 13 (SEQ ID NO:14), Ac-APLPRWSAPIAVSWALR-NH2 (peptide)
peptide: Ac-APLPRWSAPIAVSWALR-NH2
B6: Analog 2 (SEQ ID NO:3), Ac-APLPRWSGPIGVSWGLR-NH2 (peptide)
peptide: Ac-APLPRWSGPIGVSWGLR-NH2
B7: Analog 14 (SEQ ID NO:15), Ac-rlawsvaipaswrplpa-NH2 (peptide)
peptide: Ac-[dR][dL][dA][dW][dS][dV][dA][dI][dP][dA][dS][dW][dR][dP][dL][dP][dA]-NH2
SMILES: CC[C@@H](C)[C@@H](NC(=O)[C@@H](C)NC(=O)[C@H](NC(=O)[C@@H](CO)NC(=O)[C@@H](Cc1c[nH]c2ccccc12)NC(=O)[C@@H](C)NC(=O)[C@@H](CC(C)C)NC(=O)[C@@H](CCCNC(=N)N)NC(C)=O)C(C)C)C(=O)N1CCC[C@@H]1C(=O)N[C@H](C)C(=O)N[C@H](CO)C(=O)N[C@H](Cc1c[nH]c2ccccc12)C(=O)N[C@H](CCCNC(=N)N)C(=O)N1CCC[C@@H]1C(=O)N[C@H](CC(C)C)C(=O)N1CCC[C@@H]1C(=O)N[C@H](C)C(N)=O

What follows are binders tested against T1, human TREK-1 potassium channel … (assay: cell-based or functional assay).
For B1, the “IC50 of TREK-1 current inhibition (dose-response, whole cell patch clamp, 0 mV)” value (“IC50 of TREK-1 current inhibition” for short) was 9950 pM and the “fold higher affinity for TREK-1 channels than spadin, inferred from the IC50 of current inhibition” value was 6 fold.
For B2, the “IC50 of TREK-1 current inhibition” value was 1 pM.
B3 was tested, and the “IC50 of TREK-1 current inhibition” value was 11500 pM and the “fold higher affinity for TREK-1 channels than spadin, inferred from the IC50 of current inhibition” value was 6 fold.
For B4, the “IC50 of TREK-1 current inhibition” value was 40 pM.
With B5 the “IC50 of TREK-1 current inhibition” value was 40 pM.
B6 was tested, and the “IC50 of TREK-1 current inhibition” value was 60000 pM.
For B7, the “IC50 of TREK-1 current inhibition” value was 4 pM.

From patent US20170072013A1 (MEDINCELL, published 2017)
